The record followed here is paper PMC10512467, “Alternative splicing of a single exon causes a major impact on the affinity of Caenorhabditis elegans tropomyosin isoforms for actin filaments” (Frontiers in Cell and Developmental Biology, 2023).

The target of this experiment is F-actin (actin purified from rabbit muscle acetone powder) (rabbit, UniProt P68135 1-377). The experiment in a line: co-sedimentation; F-actin co-sedimentation (supernatant depletion): constant 2 uM LEV-11 isoform with 0-60 uM F-actin, 1 h, in F-buffer (0.1 M KCl, 2 mM MgCl2, 20 mM HEPES-KOH, pH 7.5, 1 mM dithiothreitol); 200,000 x g for 20 min; bound portion from the depletion of the supernatant, SDS-PAGE densitometry. Particulars: both partners purified.

B1: LEV-11T (C. elegans low-molecular-weight tropomyosin isoform, exons E3b-E4a-E5a-E6-E7b-E8-E9b), recombinant with extra Ala-Ser after the initiator Met (natural protein)
chain: MASSKVNKEGAQQTSLLDVLKKKMRQAREEAEAAKDEADEVKRQLEEERKKREDAEAEVAALNRRIVLVEEDLERTEDRLKTATSKLEQATKAADEADRARKSMETRSQQDEERANFLETQVDEAKVIAEDADRKYEEVARKLAMVEADLERAEERAEAGENKIVELEEELRVVGNNLKSLEVSEEKALQREDSYEEQIRTVSSRLKEAETRAEFAERSVQKLQKEVDRLEELRDAEVLKARQLQDELDHMVQELNSV
What is called Kd is a measure of binding affinity in units of concentration. Take B1: the Kd was found to be 3.7 µM.
